Laboratory results as given in patent US20260242515A1 (DUALITY BIOLOGICS SHANGHAI, published 2026).

T1: Monkey ADAM9 protein (ACRO, Cat. No. AD9-C52H7) (cynomolgus monkey, UniProt A0A2K5X4X8 29-697)
T1 construct: Bought protein; also called cynomolgus ADAM9 protein; monkey ADAM9 antigen
T1 sequence: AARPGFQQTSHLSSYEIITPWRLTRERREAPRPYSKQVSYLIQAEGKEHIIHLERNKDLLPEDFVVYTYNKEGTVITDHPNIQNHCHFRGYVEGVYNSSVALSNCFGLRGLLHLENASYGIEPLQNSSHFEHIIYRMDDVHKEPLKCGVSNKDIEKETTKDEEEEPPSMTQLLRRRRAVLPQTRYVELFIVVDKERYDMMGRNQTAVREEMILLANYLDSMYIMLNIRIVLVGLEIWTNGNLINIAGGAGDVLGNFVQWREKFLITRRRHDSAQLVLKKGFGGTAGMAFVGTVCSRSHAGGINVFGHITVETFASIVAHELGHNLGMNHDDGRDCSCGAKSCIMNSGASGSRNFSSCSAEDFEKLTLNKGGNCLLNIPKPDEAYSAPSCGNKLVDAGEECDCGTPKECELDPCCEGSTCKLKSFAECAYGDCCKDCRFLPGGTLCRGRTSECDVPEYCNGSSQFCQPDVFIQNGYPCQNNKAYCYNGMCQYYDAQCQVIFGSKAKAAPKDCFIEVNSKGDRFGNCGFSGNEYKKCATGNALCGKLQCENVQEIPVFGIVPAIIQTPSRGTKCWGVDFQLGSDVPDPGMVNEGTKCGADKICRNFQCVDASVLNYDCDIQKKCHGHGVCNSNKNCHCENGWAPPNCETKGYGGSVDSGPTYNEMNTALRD

T2: Human ADAM9 protein (ACROBiosystems, Cat. No. AD9-H52H7) (human, UniProt Q13443 29-697)
T2 construct: Bought protein; also called Human ADAM-His protein; human ADAM9 antigen; not shown: His tag
T2 sequence (looked up): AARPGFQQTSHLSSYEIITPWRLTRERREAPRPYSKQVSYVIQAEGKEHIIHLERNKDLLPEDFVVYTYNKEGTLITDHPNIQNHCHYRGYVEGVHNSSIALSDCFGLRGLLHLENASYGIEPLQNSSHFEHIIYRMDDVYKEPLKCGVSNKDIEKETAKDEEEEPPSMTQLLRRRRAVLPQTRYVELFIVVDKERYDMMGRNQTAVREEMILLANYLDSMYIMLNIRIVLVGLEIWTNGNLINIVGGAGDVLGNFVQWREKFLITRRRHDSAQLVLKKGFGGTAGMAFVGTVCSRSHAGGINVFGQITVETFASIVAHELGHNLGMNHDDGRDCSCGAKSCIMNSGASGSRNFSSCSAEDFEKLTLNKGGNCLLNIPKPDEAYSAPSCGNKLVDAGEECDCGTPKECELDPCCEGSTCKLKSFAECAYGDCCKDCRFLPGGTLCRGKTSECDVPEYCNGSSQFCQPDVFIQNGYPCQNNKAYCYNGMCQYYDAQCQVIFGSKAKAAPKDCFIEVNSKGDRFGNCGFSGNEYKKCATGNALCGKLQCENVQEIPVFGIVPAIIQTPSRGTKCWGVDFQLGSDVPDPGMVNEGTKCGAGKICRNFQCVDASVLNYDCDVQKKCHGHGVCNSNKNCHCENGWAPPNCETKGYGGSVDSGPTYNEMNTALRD

B1: Ab15 (antibody, human IgG1, kappa, V domains shown)
VH: QVQLQQPGAELKKPGASVKVSCKASGFTFPLYWMNWVRQRPGRGLEWIGRIIPIFGHTKYNEKFKDRATMTADESSSTAYMELSSLTSEDSAVYYCARGGYYYYPREGFLDYWGQGTSVTVSS
VL: DIVMTQSPDSLSVSPGERATINCRSSQSVDYSGDSYMNWYQQKPGQSPRLLIYAASDRESGVPDRFSGSGSGTDFTLKISNVEEEDAATYYCQQSREDPFTFGQGTRVEIKR
notes: Humanized anti-ADAM9 IgG1/kappa; also called Ab15-V (variable regions)
B2: Ab16 (antibody, human IgG1, kappa, V domains shown)
VH: QVQLQQPGTEVVKPGASVKLSCKASGFTFPLYWMHWVRQRPGRGLEWIGRIIPIFGHTKYNEKFKNKATLTADESSSTAYMELRSLTSDDSAVYYCARGGYYYYPREGFLDYWGQGTSVTVSS
VL: DIVMTQSPASLSVSPGERASISCRSSQSVDYSGDSYMNWYQQKPGQSPRLLIYAASDRESGVPDRFSGSGSGTDFTLKISRVEEEDAGTYYCQQSREDPFTFGQGTKVDIKR
notes: Humanized anti-ADAM9 IgG1/kappa; also called Ab16-V (variable regions)

Tests used:
[1] = target: T1, Monkey ADAM9 protein (ACRO, Cat. No. …); assay: SPR (Biacore 8K), antibody captured by anti-human Fc on CM5, monkey ADAM9 as analyte
Procedure: Chip preparation: The mouse anti-human IgG (Fc) antibody (Cat. No. 29234600, Cytiva) was diluted to 25 μg/mL in immobilization buffer (10 mM sodium acetate, pH 5.0), specifically by adding 950 μL of the immobilization buffer to 50 μL of the mouse anti-human IgG (Fc) antibody. The dilution was used for immobilization in eight channels. First, the surface of the CM5 chip was activated with 400 mM EDC and 100 mM NHS at a flow rate of 10 μL/min for 420 seconds. Then, 25 μg/mL of the mouse anti-human IgG (Fc) antibody was injected into the test channels at a flow rate of 10 μL/min for approximately 360 seconds, with the level of immobilization at approximately 7000 to 14000 RU. Finally, the chip was blocked with 1 M ethanolamine at a flow rate of 10 μL/min for 420 seconds. The reference channels underwent the same procedures as the test channels.
Ligand capture: Antibodies Ab10, Ab15, Ab16, and hMAB-A (2I.2) were diluted to 4 μg/mL in running buffer (containing 10 mM N-(2-hydroxyethyl)piperazine-N-2-ethanesulfonic acid (HEPES), 150 mM sodium chloride (NaCl), 3 mM ethylenediaminetetraacetic acid (EDTA), 0.005% Tween-20, pH adjusted to 7.4) and injected into the test channels for human IgG (Fc) capture at a flow rate of 10 μL/min at approximately 200 RU. No ligand capture was performed in the reference channels.
Analyte multi-cycle analysis: Human and cynomolgus ADAM9 proteins (human ADAM9 protein purchased from ACRO, Cat. No. AD9-H52H7; monkey ADAM9 protein purchased from ACRO, Cat. No. AD9-C52H7) were diluted 2-fold in running buffer (Table 10). The diluted human or cynomolgus ADAM9 protein was sequentially injected into the test channels and the reference channels at a flow rate of 30 μL/min, with corresponding association and dissociation times. Both the association and dissociation steps were performed in the running buffer. After each concentration analysis, the chip was regenerated with 3 M magnesium chloride at a flow rate of 20 μL/min for 30 seconds to wash away the ligand and any undissociated analyte. For the next concentration analysis, the test channels required re-capture of the same amount of ligand.

[2] = target: T2, Human ADAM9 protein (ACROBiosystems, …); assay: indirect ELISA, human ADAM9-His coated at 1 ug/mL
Procedure: The plate was washed three times with PBST (PBS (pH 7.4) containing 0.05% Tween-20), followed by addition of 200 μL/well of blocking buffer containing 1% bovine serum albumin (BSA) diluted in PBST, and incubated at 37° C. for 1 hour for blocking. After blocking, the blocking buffer was discarded, and the plate was washed once with PBST buffer. The test antibody was diluted in PBST containing 1% BSA with a 3-fold serial dilution starting at 15 μg/mL across 11 doses, and added to the ELISA plate at 100 μL/well, followed by incubation at 37° C. for 1 hour. After incubation, the plate was washed three times with PBST, followed by addition of 100 μL/well of HRP-labeled goat anti-human secondary antibody (Rockland, Cat. No. 609-103-123) diluted in PBST containing 1% BSA, and incubated at room temperature for 45 minutes. The plate was washed six times with PBST, followed by addition of 100 μL/well of TMB chromogenic substrate (Suzhou Yacoo Chemical Reagent Co., Ltd., Cat. No. S0025), and incubated at room temperature in the dark for 10 minutes. The reaction was terminated by adding 50 μL/well of 1 M HCl, and the absorbance was measured at 450 nm using a microplate reader (Thermo, Ascent) for data analysis.

Row | Binder | Kd [1] | koff [1] | kon [1] | EC50 [2] | Top (OD450) [2]
1 | B1 | 9.47 nM | 0.000461 s⁻¹ | 48700 M⁻¹ s⁻¹ | 0.049 nM | 3.28 OD450
2 | B2 | 8.61 nM | 0.000528 s⁻¹ | 61300 M⁻¹ s⁻¹ | 0.042 nM | 3.36 OD450
